Test results as given in the supplement of paper PMC7877785.
± gives the uncertainty stated by the source.

Assay: self-splicing fitness, log relative to wild type (ln ratio); higher = more splicing; Tetrahymena group I intron in knt gene, E. coli kanamycin selection, DiMSum; sequences stand for … in CUCUCU…GGAGGGAAAAGUUAUCAGGCAUGCACCUGGUAGCUAGUCUUUAAACCAAUAGAUUGCAUCGGUUUAAAAGGCAAGACCGUCAAAUUGCGGGAAAGGGGUCAACAGCCGUUCAGUACCAAGUCUCAGGGGAAACUUUGAGAUGGCCUUGCAAAGGGUAUGGUAAUAAGCUGACGGACAUGGUCCUAACCACGCAGCCAAGUCCUAAGUCAACAGAUCUUCUGUUGAUAUGGAUGCAGUUCACAGACUAAAUGUCGGUCGGGGAAGAUGUAUUCUUCUCAUAAGAUAUAGUCGGACCUCUCCUUAAUGGGAGCUAGCGGAUGAAGUGAUGCAACACUGGAGCCGCUGGGAACUAAUUUGUAUGCGAAAGUAUAUUGAUUAGUUUUGGAGUACUCGUGGUCG
In short: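 Library with all eight P1ex-region intron nucleotides randomised, intron inside the knt kanamycin-resistance gene on pET-22b(+), in E. coli BL21(DE3). Cells grew overnight at 37°C or 30°C on LB agar with or without 25 μg/mL kanamycin (plus 100 μg/mL carbenicillin, 50 μM IPTG, 0.2% rhamnose), in six replicate transformations. Pooled colonies were amplicon-sequenced on Illumina HiSeq 2500. DiMSum fitness is the error-weighted combination of wild-type-normalised replicate fold changes, kanamycin versus none.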

Sequence	self-splicing fitness (ln) (30 °C)	self-splicing fitness (ln) (37 °C)
AAGUAGCAAUAUUACGUAAU	-2.31 ± 0.1	0.0619 ± 0.096
AAGUAGCAAUAUUACGUCAA	-2.25 ± 0.1	-0.583 ± 0.083
AAGUAGCAAUAUUACGUCAG	-3.38 ± 0.19	-2.43 ± 0.18
AAGUAGCAAUAUUACGUCAU	-2.29 ± 0.13	-0.997 ± 0.12
AAGUAGCAAUAUUACGUCCG	-1.53 ± 0.14	-1.93 ± 0.14
AAGUAGCAAUAUUACGUCGG	-2.97 ± 0.25	-2.09 ± 0.26
AAGUAGCAAUAUUACGUCUU	-0.577 ± 0.12	-0.48 ± 0.11
AAGUAGCAAUAUUACGUUAA	-2.47 ± 0.23	-2.33 ± 0.18
AAUAAGCAAUAUUACGACAU	-0.117 ± 0.012	0.0514 ± 0.032
AAUAAGCAAUAUUACGAGAC	-3.14 ± 0.47	-1.18 ± 0.23
AAUAAGCAAUAUUACGAGGU	-4.58 ± 0.27	-2.11 ± 0.18
AAUAAGCAAUAUUACGAGUU	-1.32 ± 0.087	-1.1 ± 0.1
AAUAAGCAAUAUUACGAUCA	-0.507 ± 0.12	0.576 ± 0.13
AAUAAGCAAUAUUACGAUGA	-0.45 ± 0.1	-0.0904 ± 0.11
AAUAAGCAAUAUUACGAUGG	-2.53 ± 0.14	-0.861 ± 0.12
AAUAAGCAAUAUUACGCAAG	-1.77 ± 0.1	-1.59 ± 0.14
AAUAAGCAAUAUUACGCCUC	-2.43 ± 0.35	-1.19 ± 0.31
AAUAAGCAAUAUUACGCCUU	-0.502 ± 0.12	-0.0645 ± 0.18
AAUAAGCAAUAUUACGCGAC	-1.61 ± 0.14	-1.46 ± 0.14
AAUAAGCAAUAUUACGCGAU	-2.22 ± 0.23	-2.98 ± 0.35
AAUAAGCAAUAUUACGCGCC	-0.204 ± 0.15	-0.572 ± 0.16
AAUAAGCAAUAUUACGCGCG	-0.258 ± 0.11	0.0567 ± 0.15
AAUAAGCAAUAUUACGCGUC	-1.45 ± 0.13	-1.15 ± 0.16
AAUAAGCAAUAUUACGCUCU	-0.422 ± 0.079	-0.115 ± 0.09
AAUAAGCAAUAUUACGGAUU	-1.34 ± 0.096	-0.185 ± 0.12
AAUAAGCAAUAUUACGGCAC	-1.44 ± 0.11	-0.634 ± 0.14

Sequence	self-splicing fitness (ln) (30 °C)	self-splicing fitness (ln) (37 °C)
AAUAAGCAAUAUUACGGCCG	-0.879 ± 0.12	0.196 ± 0.2
AAUAAGCAAUAUUACGGGAA	-2.54 ± 0.28	-0.437 ± 0.2
AAUAAGCAAUAUUACGGGCA	-0.69 ± 0.1	-0.292 ± 0.11
AAUAAGCAAUAUUACGGGGC	-3.29 ± 0.26	-2.91 ± 0.37
AAUAAGCAAUAUUACGGUUA	-0.197 ± 0.08	-0.369 ± 0.077
AAUAAGCAAUAUUACGUCAC	-3.19 ± 0.17	-3.17 ± 0.21
AAUAAGCAAUAUUACGUCAU	-1.39 ± 0.062	-0.608 ± 0.092
AAUAAGCAAUAUUACGUGAC	-2.18 ± 0.2	-2.76 ± 0.35
AAUAAGCAAUAUUACGUUUC	-4.09 ± 0.28	-2.46 ± 0.24
AAUCAGCAAUAUUACGAAAG	-1.78 ± 0.12	-0.272 ± 0.13
AAUCAGCAAUAUUACGAGCC	-2.39 ± 0.16	-0.744 ± 0.19
AAUCAGCAAUAUUACGAGCG	-0.582 ± 0.063	-0.11 ± 0.079
AAUCAGCAAUAUUACGAGCU	-0.908 ± 0.093	-0.226 ± 0.093
AAUCAGCAAUAUUACGAGGG	-1.68 ± 0.088	-0.681 ± 0.096
AAUCAGCAAUAUUACGAUAU	0.477 ± 0.082	0.538 ± 0.1
AAUCAGCAAUAUUACGAUGG	-1.49 ± 0.1	-0.853 ± 0.12
AAUCAGCAAUAUUACGCACG	-1.02 ± 0.17	-1.1 ± 0.16
AAUCAGCAAUAUUACGCCAC	-3.91 ± 0.21	-3.78 ± 0.39
AAUCAGCAAUAUUACGCCGG	-1.15 ± 0.086	-0.932 ± 0.099
AAUCAGCAAUAUUACGCGAC	-1.17 ± 0.085	-1.96 ± 0.15
AAUCAGCAAUAUUACGCGGC	-1.53 ± 0.26	0.179 ± 0.16
AAUCAGCAAUAUUACGCUGC	-3.58 ± 0.26	-2.36 ± 0.19
AAUCAGCAAUAUUACGGACC	0.313 ± 0.13	-0.451 ± 0.13
AAUCAGCAAUAUUACGGCCA	-0.515 ± 0.11	-0.146 ± 0.12
AAUCAGCAAUAUUACGGCGC	-0.736 ± 0.096	0.0282 ± 0.11
AAUCAGCAAUAUUACGGGAA	-1.37 ± 0.097	0.137 ± 0.078

Sequence	self-splicing fitness (ln) (30 °C)	self-splicing fitness (ln) (37 °C)
AAUCAGCAAUAUUACGGGUG	-0.238 ± 0.044	0.275 ± 0.06
AAUCAGCAAUAUUACGGUAU	0.192 ± 0.063	0.705 ± 0.088
AAUCAGCAAUAUUACGGUCG	-0.214 ± 0.048	0.0375 ± 0.065
AAUCAGCAAUAUUACGGUCU	-0.356 ± 0.06	-0.224 ± 0.071
AAUCAGCAAUAUUACGUAAU	-0.172 ± 0.059	0.204 ± 0.075
AAUCAGCAAUAUUACGUACA	-0.484 ± 0.076	0.13 ± 0.1
AAUCAGCAAUAUUACGUAGC	-1.93 ± 0.093	-0.229 ± 0.12
AAUCAGCAAUAUUACGUAGG	-1.61 ± 0.056	-0.958 ± 0.077
AAUCAGCAAUAUUACGUCAC	-3.34 ± 0.27	-1.93 ± 0.19
AAUCAGCAAUAUUACGUCGU	-0.489 ± 0.054	0.414 ± 0.071
AAUCAGCAAUAUUACGUUAG	-3.15 ± 0.2	-2.86 ± 0.23
AAUCAGCAAUAUUACGUUCG	-1.51 ± 0.07	-0.466 ± 0.089
AAUCAGCAAUAUUACGUUUU	-0.639 ± 0.058	-0.399 ± 0.085
AAUGAGCAAUAUUACGAAAC		-1.27 ± 0.32
AAUGAGCAAUAUUACGAAGA	-2.8 ± 0.19	-2.91 ± 0.26
AAUGAGCAAUAUUACGACCC	-3.25 ± 0.32	0.0637 ± 0.21
AAUGAGCAAUAUUACGACUA	-2.47 ± 0.25	-0.177 ± 0.21
AAUGAGCAAUAUUACGAGAU	-3.92 ± 0.21	-2.23 ± 0.13
AAUGAGCAAUAUUACGAUCG	-3.6 ± 0.32	-2.59 ± 0.24
AAUGAGCAAUAUUACGAUGG	-1.98 ± 0.13	-2.1 ± 0.26
AAUGAGCAAUAUUACGCCCA	-2.56 ± 0.3	-1.75 ± 0.32
AAUGAGCAAUAUUACGCGAG	-2.49 ± 0.16	-1.46 ± 0.14
AAUGAGCAAUAUUACGCGUA	-2.4 ± 0.27	-1.62 ± 0.25
AAUGAGCAAUAUUACGCGUC	-3.02 ± 0.29	-2.25 ± 0.29
